IntAct's records for PubMed 22089237

B1: Alpha-1A adrenergic receptor (Homo sapiens), P35348 (parent)
chain: MVFLSGNASDSSNCTQPPAPVNISKAILLGVILGGLILFGVLGNILVILSVACHRHLHSVTHYYIVNLAVADLLLTSTVLPFSAIFEVLGYWAFGRVFCNIWAAVDVLCCTASIMGLCIISIDRYIGVSYPLRYPTIVTQRRGLMALLCVWALSLVISIGPLFGWRQPAPEDETICQINEEPGYVLFSALGSFYLPLAIILVMYCRVYVVAKRESRGLKSGLKTDKSDSEQVTLRIHRKNAPAGGSGMASAKTKTHFSVRLLKFSREKKAAKTLGIVVGCFVLCWLPFFLVMPIGSFFPDFKPSETVFKIVFWLGYLNSCINPIIYPCSSQEFKKAFQNVLRIQCLCRKQSSKHALGYTLHPPSQAVEGQHKDMVRIPVGSRETFYRISKTDGVCEWKFFSSMPRGSARITVSKDQSSCTTARVRSKSFLQVCCCVGPSTPSLDKNHQVPTIKVHTISLSENGEEV

Variants of: B1
Details: with arrb1_rat Arrb1, P29066
Chain of arrb1_rat Arrb1, P29066 (P29066 whole entry): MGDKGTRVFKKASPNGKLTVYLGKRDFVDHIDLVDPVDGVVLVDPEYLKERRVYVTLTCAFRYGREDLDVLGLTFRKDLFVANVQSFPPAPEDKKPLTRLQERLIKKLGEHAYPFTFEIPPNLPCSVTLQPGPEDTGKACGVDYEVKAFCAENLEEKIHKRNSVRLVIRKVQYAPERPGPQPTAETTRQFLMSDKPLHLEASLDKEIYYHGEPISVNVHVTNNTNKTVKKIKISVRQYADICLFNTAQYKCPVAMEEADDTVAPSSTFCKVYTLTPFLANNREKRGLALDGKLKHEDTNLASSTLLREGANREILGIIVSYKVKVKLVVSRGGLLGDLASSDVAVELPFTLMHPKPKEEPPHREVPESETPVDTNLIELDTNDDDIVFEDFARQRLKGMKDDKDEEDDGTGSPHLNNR

effect of a mutation on the interaction | Variant
increasing interaction strength | MVFLSGNASDSSNCTQPPAPVNISKAILLGVILGGLILFGVLGNILVILSVACHRHLHSVTHYYIVNLAVADLLLTSTVLPFSAIFEVLGYWAFGRVFCNIWAAVDVLCCTASIMGLCIISIDRYIGVSYPLRYPTIVTQRRGLMALLCVWALSLVISIGPLFGWRQPAPEDETICQINEEPGYVLFSALGSFYLPLAIILVMYCRVYVVAKRESRGLKSGLKTDKSDSEQVTLRIHRKNAPAGGSRMASAKTKTHFSVRLLKFSREKKAAKTLGIVVGCFVLCWLPFFLVMPIGSFFPDFKPSETVFKIVFWLGYLNSCINPIIYPCSSQEFKKAFQNVLRIQCLCRKQSSKHALGYTLHPPSQAVEGQHKDMVRIPVGSRETFYRISKTDGVCEWKFFSSMPRGSARITVSKDQSSCTTARVRSKSFLQVCCCVGPSTPSLDKNHQVPTIKVHTISLSENGEEV [G247R]
